From publication PMC6698648, “A Fanci knockout mouse model reveals common and distinct functions for FANCI and FANCD2” (Nucleic Acids Research, 2019) come the findings set out here.

This test addresses T1, Human RAD51 (human, UniProt Q06609 1-339).
T1 sequence (looked up): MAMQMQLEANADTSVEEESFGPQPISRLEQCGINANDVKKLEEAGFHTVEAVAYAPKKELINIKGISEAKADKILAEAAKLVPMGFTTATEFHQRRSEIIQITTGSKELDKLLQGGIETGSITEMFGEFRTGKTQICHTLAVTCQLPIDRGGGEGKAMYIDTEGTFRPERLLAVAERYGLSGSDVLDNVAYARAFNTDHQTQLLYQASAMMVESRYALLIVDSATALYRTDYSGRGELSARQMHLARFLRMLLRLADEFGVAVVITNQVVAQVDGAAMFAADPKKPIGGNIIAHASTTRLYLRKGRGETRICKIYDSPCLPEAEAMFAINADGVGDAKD
The test is described as follows: cell-based or functional assay.

B1: FANCI (natural protein, UniProt Q9NVI1 1-1328, looked up)
chain: MDQKILSLAAEKTADKLQEFLQTLREGDLTNLLQNQAVKGKVAGALLRAIFKGSPCSEEAGTLRRRKIYTCCIQLVESGDLQKEIASEIIGLLMLEAHHFPGPLLVELANEFISAVREGSLVNGKSLELLPIILTALATKKENLAYGKGVLSGEECKKQLINTLCSGRWDQQYVIQLTSMFKDVPLTAEEVEFVVEKALSMFSKMNLQEIPPLVYQLLVLSSKGSRKSVLEGIIAFFSALDKQHNEEQSGDELLDVVTVPSGELRHVEGTIILHIVFAIKLDYELGRELVKHLKVGQQGDSNNNLSPFSIALLLSVTRIQRFQDQVLDLLKTSVVKSFKDLQLLQGSKFLQNLVPHRSYVSTMILEVVKNSVHSWDHVTQGLVELGFILMDSYGPKKVLDGKTIETSPSLSRMPNQHACKLGANILLETFKIHEMIRQEILEQVLNRVVTRASSPISHFLDLLSNIVMYAPLVLQSCSSKVTEAFDYLSFLPLQTVQRLLKAVQPLLKVSMSMRDCLILVLRKAMFANQLDARKSAVAGFLLLLKNFKVLGSLSSSQCSQSLSVSQVHVDVHSHYNSVANETFCLEIMDSLRRCLSQQADVRLMLYEGFYDVLRRNSQLANSVMQTLLSQLKQFYEPKPDLLPPLKLEACILTQGDKISLQEPLDYLLCCIQHCLAWYKNTVIPLQQGEEEEEEEEAFYEDLDDILESITNRMIKSELEDFELDKSADFSQSTSIGIKNNICAFLVMGVCEVLIEYNFSISSFSKNRFEDILSLFMCYKKLSDILNEKAGKAKTKMANKTSDSLLSMKFVSSLLTALFRDSIQSHQESLSVLRSSNEFMRYAVNVALQKVQQLKETGHVSGPDGQNPEKIFQNLCDITRVLLWRYTSIPTSVEESGKKEKGKSISLLCLEGLQKIFSAVQQFYQPKIQQFLRALDVTDKEGEEREDADVSVTQRTAFQIRQFQRSLLNLLSSQEEDFNSKEALLLVTVLTSLSKLLEPSSPQFVQMLSWTSKICKENSREDALFCKSLMNLLFSLHVSYKSPVILLRDLSQDIHGHLGDIDQDVEVEKTNHFAIVNLRTAAPTVCLLVLSQAEKVLEEVDWLITKLKGQVSQETLSEEASSQATLPNQPVEKAIIMQLGTLLTFFHELVQTALPSGSCVDTLLKDLCKMYTTLTALVRYYLQVCQSSGGIPKNMEKLVKLSGSHLTPLCYSFISYVQNKSKSLNYTGEKKEKPAAVATAMARVLRETKPIPNLIFAIEQYEKFLIHLSKKSKVNLMQHMKLSTSRDFKIKGNILDMVLREDGEDENEEGTASEHGGQNKEPAKKKRKK
With B1, the “RAD51-mediated D-loop formation, RAD51 at 400 nM with added FANCI (up to 100 nM), fold activation relative to RAD51 alone” value was found to be 8 fold.
